The series addresses SARS-CoV-2 spike S1 subunit (SARS-CoV-2, UniProt P0DTC2 14-685). Description: bead-based fluorescence.

Here are results for two molecules from article PMC9993738.

B1: SpS1-C4 (ssDNA)
DNA: GAACATTGGCGTCCGTGAGCAGCTCGTGGTTGTTTGCTTGTATACTTTTGTGGTTTATCTTGTTTCTGATCACTTCCTCAAACGCCCAA
Regarding B1, the binding result is given as “binds”.

B2: SpS1-C1 (ssDNA)
DNA: GAACATTGGCGTCCGTGAGTGAGACCATAGTCCAGCGAACTAAACCTACCCTAAAGGGCAAGGAAGACGGGCACTTCCTCAAACGCCCAA
Consider B2, for which the binding result is “binds”.
